The record followed here is patent US20240000938A1.

The target in experiment [1] is HLA-A*02 on cells (human). Description: cell-based or functional assay.
The target in experiment [2] is streptavidin-PE-HLA-A*02-pMHC or streptavidin-APC-HLA-A*02-pMHC tetramer (human). The experiment can be described thus: flow cytometry; HLA-A*02 positive donor primary T cells with CAR and A*02 blocker, before B2M knockout.
Experiment [3] shares this target. The experiment can be described thus: flow cytometry; HLA-A*02 positive donor primary T cells with CAR and A*02 blocker, after B2M knockout with sgRNA B2M-3. (Flow cytometry measures light scatter and fluorescence of single cells or particles in a stream.)
Experiment [4] shares this target. Description: flow cytometry; HLA-A*02 positive donor primary T cells with CAR and A*02 blocker, after B2M knockout with sgRNA B2M-6.

Turning to “HLA-A*02 PA2.1 ScFv LIR1 inhibitor (C1765) (from UniProt Q8NHL6 398-650)”, in experiment [1], the inhibition of IFNγ induction in primary T cells (HeLa cells) is > 5 fold, the inhibition of IFNγ induction in primary T cells (SiHa cells) is > 10 fold and the suppression of pan HLA scFv CAR signal (T2 cells) was < 25 fold. In experiment [2], the % of cells negative for the A*02 blocker probe is > 85% and the % of the cell population stained with the A*02 blocker probe worked out at 14.8%. Also, the % of the cell population stained with the A*02 blocker probe in experiment [3] was determined as 40.7%. This substance had a % of the cell population stained with the A*02 blocker probe in experiment [4] of 44%.
